For five molecules, Kd results are on record in paper PMC2199621 (The Journal of Cell Biology, 2001).

Assay [1] deals with importin β–IBB domain complex (UniProt Q14974 1-876; P52292 2-60). The assay is described as follows: ELISA.
Assay [2] has as its target 6× his-S–tagged importin β (UniProt Q14974 1-876). The assay is described as follows: ELISA. (ELISA stands for enzyme-linked immunosorbent assay.)

Sequence of importin β–IBB domain complex (Q14974 whole entry, chain 1 of 2, other chains not shown, the tested form may be a part): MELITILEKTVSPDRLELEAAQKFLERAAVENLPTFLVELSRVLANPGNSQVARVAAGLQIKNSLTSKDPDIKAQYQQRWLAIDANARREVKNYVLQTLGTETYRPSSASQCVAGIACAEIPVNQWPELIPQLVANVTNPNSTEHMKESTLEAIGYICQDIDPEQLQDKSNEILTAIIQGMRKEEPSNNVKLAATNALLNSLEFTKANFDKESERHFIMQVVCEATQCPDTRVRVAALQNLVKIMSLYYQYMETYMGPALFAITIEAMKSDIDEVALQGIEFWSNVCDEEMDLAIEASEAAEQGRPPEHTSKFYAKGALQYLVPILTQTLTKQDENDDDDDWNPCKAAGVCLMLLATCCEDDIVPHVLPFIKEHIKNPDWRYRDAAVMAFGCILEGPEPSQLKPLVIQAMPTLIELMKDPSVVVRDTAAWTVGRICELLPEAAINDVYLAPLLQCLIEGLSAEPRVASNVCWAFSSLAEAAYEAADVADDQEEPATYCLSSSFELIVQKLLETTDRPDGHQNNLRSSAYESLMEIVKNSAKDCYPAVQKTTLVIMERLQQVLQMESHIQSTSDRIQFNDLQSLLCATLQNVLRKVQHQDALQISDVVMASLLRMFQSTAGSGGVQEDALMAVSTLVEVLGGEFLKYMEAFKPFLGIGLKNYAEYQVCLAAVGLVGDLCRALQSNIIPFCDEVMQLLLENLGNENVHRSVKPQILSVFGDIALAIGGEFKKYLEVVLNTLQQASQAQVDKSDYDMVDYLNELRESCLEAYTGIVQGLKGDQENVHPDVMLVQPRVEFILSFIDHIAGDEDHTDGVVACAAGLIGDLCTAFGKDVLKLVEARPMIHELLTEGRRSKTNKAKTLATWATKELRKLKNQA
Sequence of 6× his-S–tagged importin β (Q14974 whole entry): as the sequence (Q14974 whole entry, chain 1 of 2, other chains not shown, the tested form may be a part) above

B1: GST-tagged Nup62 (natural protein, UniProt P17955 1-525, looked up)
chain: MSGFNFGGTGAPAGGFTFGTAKTATTTPATGFSFSASGTGTGGFNFGTPSQPAATTPSTSLFSLATQTSTTQTPGFNFGTTPASGGTGFSLGISTPKLSLSSTAATPATANTGSFGLGSSTLTNAISGASTSSQGTAPTGFVFGSSTTSAPSTGTTGFSFTSGSASQPGASGFNIGSVGSLAQPTALSGSPFTPATLATTTAGATQPAAATPTAATTSAGSTLFASIAAAPASSSTTVLSLSAPATTAATPTAGTLGFSLKAPGAAPGASTTSTTTTTTTTTTTASTSSSTTTTGFALSLKPLVPAGPSSVAATALPASSTAVGTTTGPAMTYAQLESLINKWSLELEDQERHFLQQATQVNAWDRTLIENGEKITSLHREVEKVKLDQKRLDQELDFILSQQKELEDLLSPLEESVKEQSGTIYLQHADEEREKTYKLAENIDAQLKRMAQDLKDIIEHLNMAGGPADTSDPLQQICKILNAHMDSLQWVDQSSALLQRRVEEASRVCESRRKEQERSLRIAFD
Turning to B1, the values for the equilibrium dissociation constant (Kd) in assay [1] and in assay [2] were 105 ± 6 nM and 100 ± 8 nM, respectively.

B2: Nup358-4 (amino acids 2500–3224) (domain or fragment, UniProt P49792 2500-3224, looked up)
chain: TSETTPKAVVSPPKFVFGSESVKSIFSSEKSKPFAFGNSSATGSLFGFSFNAPLKSNNSETSSVAQSGSESKVEPKKCELSKNSDIEQSSDSKVKNLFASFPTEESSINYTFKTPEKAKEKKKPEDSPSDDDVLIVYELTPTAEQKALATKLKLPPTFFCYKNRPDYVSEEEEDDEDFETAVKKLNGKLYLDGSEKCRPLEENTADNEKECIIVWEKKPTVEEKAKADTLKLPPTFFCGVCSDTDEDNGNGEDFQSELQKVQEAQKSQTEEITSTTDSVYTGGTEVMVPSFCKSEEPDSITKSISSPSVSSETMDKPVDLSTRKEIDTDSTSQGESKIVSFGFGSSTGLSFADLASSNSGDFAFGSKDKNFQWANTGAAVFGTQSVGTQSAGKVGEDEDGSDEEVVHNEDIHFEPIVSLPEVEVKSGEEDEEILFKERAKLYRWDRDVSQWKERGVGDIKILWHTMKNYYRILMRRDQVFKVCANHVITKTMELKPLNVSNNALVWTASDYADGEAKVEQLAVRFKTKEVADCFKKTFEECQQNLMKLQKGHVSLAAELSKETNPVVFFDVCADGEPLGRITMELFSNIVPRTAENFRALCTGEKGFGFKNSIFHRVIPDFVCQGGDITKHDGTGGQSIYGDKFEDENFDVKHTGPGLLSMANQGQNTNNSQFVITLKKAEHLDFKHVVFGFVKDGMDTVKKIESFGSPKGSVCRRITITECGQI
Consider B2, for which the dissociation constant (Kd) came out at 220 ± 16 nM in assay [1] and 225 ± 14.4 nM in assay [2].

B3: GST-tagged Nup58 (natural protein, UniProt P70581 1-585, looked up)
chain: MATGFSFGSGTLGSTTVAPGGTGTGSGFSFGASSTPSVGLNFGTLGSSATPASTSTSASGFGTGLFGSKPGTGFTLGGTSAGTTATTSASTTGFSLGFSKPAASATPFALPVTSTTASGLTLSSALTSAPAASTGFTLNNLGATPATTTAASTGLSLGGALAGLGGSLFQSGNTATSGLGQNALSLSLGTATPTSAASSEGLGGIDFSTSSDKKSDKTGTRPEDSKALKDENLPPVICQDVENLQKFVKEQKQVQEEISRMSSKAMLKVQEDIKALKQLLSLAASGLQRNTLNIDKLKLETAQELKNAEIALRTQKTPPGLQHENTAPADYFRVLVQQFEVQLQQYRQQIEELENHLATQANNSHITPQDLSMAMQKIYQTFVALAAQLQSIHENVKVLKEQYLSYRKMFLGDAGDVFEARRTEAKKWQNAPRVTTGPTPFSTMPNAAAVAMAATLTQQQQPATGPQPSLGVSFGTPFGSGIGTGLQSSGLGSSNLGGFGTSSGFGCGTTGASTFGFGTTDKPSGSLSAGFGSSSTSGFNFSNPGITASAGLTFGVSNPASAGFGTGGQLLQLKRPPAGNKRGKR
Consider B3, for which the Kd in assay [1] was determined as 107 ± 8 nM; in assay [2], 101 ± 2 nM.

B4: GST-tagged Nup54 (natural protein, UniProt P70582 1-510, looked up)
chain: MAFNFGAPSGTSGTSTATAAPAGGFGGFGTTTTTAGSAFSFSAPTNTGSTGLLGGTQNKGFGFGTGFGTSTGTGTGLGTGLGTGLGFGGFNTQQQQQQQQTSLGGLFSQPAQAPAQSNQLINTASALSAPTLLGDERDAILAKWNQLQAFWGTGKGYFNNNIPPVEFTQENPFCRFKAVGYSCMPNNKDEDGLVVLIFNKKETDIRSQQQQLVESLHKVLGGNQTLTVNVEGIKTLPDDQTEVVIYIVERSPNGTSRRVPATTLYAHFEQANIKTQLQQLGVTLSMTRTELSPAQIKQLLQNPPAGVDPIIWEQAKVDNPDSEKLIPVPMVGFKELLRRLKVQDQMTKQHQTRLDIISEDISELQKNQTTTMAKIAQYKRKLMDLSHRTLQVLIKQEIQRKSGYAIQAEEEQLRVQLDTIQGELNAPTQFKGRLNELMSQIRMQNHFGAVKSEEKYYIDADLLREIKQHLKQQQEGLSHLISIIKDDLEDIKLVEHGLNETIHSRGGVFS
As to B4, the Kd in assay [1] came out at 108 ± 8.5 nM; in assay [2] it was 112 ± 6.5 nM.

B5: 6× his–tagged COOH-terminal segment of human Nup153 comprising amino acids 609–1475 (domain or fragment, UniProt P49790 609-1475, looked up)
chain: LDILKSPGFASPKIDSVAAQPTATSPVVYTRPAISSFSSSGIGFGESLKAGSSWQCDTCLLQNKVTDNKCIACQAAKLSPRDTAKQTGIETPNKSGKTTLSASGTGFGDKFKPVIGTWDCDTCLVQNKPEAIKCVACETPKPGTCVKRALTLTVVSESAETMTASSSSCTVTTGTLGFGDKFKRPIGSWECSVCCVSNNAEDNKCVSCMSEKPGSSVPASSSSTVPVSLPSGGSLGLEKFKKPEGSWDCELCLVQNKADSTKCLACESAKPGTKSGFKGFDTSSSSSNSAASSSFKFGVSSSSSGPSQTLTSTGNFKFGDQGGFKIGVSSDSGSINPMSEGFKFSKPIGDFKFGVSSESKPEEVKKDSKNDNFKFGLSSGLSNPVSLTPFQFGVSNLGQEEKKEELPKSSSAGFSFGTGVINSTPAPANTIVTSENKSSFNLGTIETKSASVAPFTCKTSEAKKEEMPATKGGFSFGNVEPASLPSASVFVLGRTEEKQQEPVTSTSLVFGKKADNEEPKCQPVFSFGNSEQTKDENSSKSTFSFSMTKPSEKESEQPAKATFAFGAQTSTTADQGAAKPVFSFLNNSSSSSSTPATSAGGGIFGSSTSSSNPPVATFVFGQSSNPVSSSAFGNTAESSTSQSLLFSQDSKLATTSSTGTAVTPFVFGPGASSNNTTTSGFGFGATTTSSSAGSSFVFGTGPSAPSASPAFGANQTPTFGQSQGASQPNPPGFGSISSSTALFPTGSQPAPPTFGTVSSSSQPPVFGQQPSQSAFGSGTTPNSSSAFQFGSSTTNFNFTNNSPSGVFTFGANSSTPAASAQPSGSGGFPFNQSPAAFTVGSNGKNVFSSSGTSFSGRKIKTAVRRRK
In the case of B5, the Kd in assay [1] came to 9.4 ± 3 nM; in assay [2] it was 9 ± 2.5 nM.

The Kd is the constant that tells how readily two partners part at equilibrium. A lower Kd goes with tighter binding.
